From article doi:10.1101/2022.10.22.513346 (bioRxiv, 2022)
No end group written: not given here.

T1: N-terminal intrinsically disordered region (IDR) of ATG8 INTERACTING PROTEIN1 (ATI1) (Arabidopsis thaliana, UniProt O82775 1-180)
T1 sequence (looked up): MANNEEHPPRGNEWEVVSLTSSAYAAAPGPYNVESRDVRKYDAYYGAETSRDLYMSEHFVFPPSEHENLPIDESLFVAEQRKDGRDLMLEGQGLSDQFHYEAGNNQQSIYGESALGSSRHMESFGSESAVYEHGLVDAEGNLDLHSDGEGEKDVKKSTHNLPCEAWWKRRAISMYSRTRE


Columns and labels:
[1] = biological target: T1, N-terminal intrinsically disordered …; test: NMR titration
[2] = biological target: T1, N-terminal intrinsically disordered …; test: MST

| binding result [1] | Kd [2] [µM] | Binder |
| --- | --- | --- |
| binds | – | SSSKAFKFPMRPGKGQSGKRC (also: 15N-labeled) [15N-labeled AGO1 N-coil peptide, wild type] |
| – | 11 | His6-SUMO-NcGN^AGO1 (N-coil plus globular N-domain of Arabidopsis AGO1), wild type N-coil (domain or fragment, Arabidopsis thaliana, UniProt O04379-2 172-335, looked up, red maleimide fluorophore on Cys192 (Monolith NT Protein Labeling Kit Red - Maleimide)) SSSKAFKFPMRPGKGQSGKRCIVKANHFFAELPDKDLHHYDVTITPEVTSRGVNRAVMKQLVDNYRDSHLGSRLPAYDGRKSLYTAGPLPFNSKEFRINLLDEEVGAGGQRREREFKVVIKLVARADLHHLGMFLEGKQSDAPQEAAQVADIVSRELPTSRIRY |
| – | 47 | His6-SUMO-NcGN^AGO1 K178E (domain or fragment, Arabidopsis thaliana, UniProt O04379-2 172-335, looked up, red maleimide fluorophore on Cys192 (Monolith NT Protein Labeling Kit Red - Maleimide)) SSSKAFEFPMRPGKGQSGKRCIVKANHFFAELPDKDLHHYDVTITPEVTSRGVNRAVMKQLVDNYRDSHLGSRLPAYDGRKSLYTAGPLPFNSKEFRINLLDEEVGAGGQRREREFKVVIKLVARADLHHLGMFLEGKQSDAPQEAAQVADIVSRELPTSRIRY |
